Data published in US20240158479A1 (RUTGERS THE STATE UNIVERSITY OF NEW JERSEY, published 2024).
Several values for one entry are separate records, joined by “and”; a condition that tells them apart may be missing. Equal values may be shown once. Read-outs that look alike come from different tables or passages of the source.

Columns and labels:
Assay in all cases: cell-based or functional assay
[1] = target: Omicron BA.1 spike on pseudovirus (SARS-CoV-2)
[2] = target: Omicron BA.2 spike on pseudovirus (SARS-CoV-2)
[3] = target: Omicron BA.2.12.1 spike on pseudovirus (SARS-CoV-2)
[4] = target: Omicron BA.2.75 spike on pseudovirus (SARS-CoV-2)
[5] = target: Omicron BA.4/5 spike on pseudovirus (SARS-CoV-2)
[6] = target: Omicron BA.4.6 spike on pseudovirus (SARS-CoV-2)
[7] = target: Omicron BA.1 spike on pseudovirus (SARS-CoV-2); remark: listed apart in the source
[8] = target: Wuhan_Hu-1 spike (B.1_614D) on pseudovirus (SARS-CoV-2, UniProt P0DTC2 14-1273)
[9] = target: Wuhan_Hu-1_D614G spike (B.1) on pseudovirus (SARS-CoV-2, UniProt P0DTC2 14-1273)
[10] = target: Alpha spike (B.1.1.7) on pseudovirus (SARS-CoV-2)
[11] = target: Delta spike (B.1.617.2) on pseudovirus (SARS-CoV-2)
[12] = target: Beta spike (B.1.351) on pseudovirus (SARS-CoV-2)
[13] = target: Gamma spike (P.1) on pseudovirus (SARS-CoV-2)
[14] = target: Omicron BA.1 spike on pseudovirus (SARS-CoV-2); remark: listed apart in the source
[15] = target: Omicron BA.2 spike on pseudovirus (SARS-CoV-2); remark: listed apart in the source
[16] = target: Omicron BA.2.12.1 spike on pseudovirus (SARS-CoV-2); remark: listed apart in the source
[17] = target: Omicron BA.2.75 spike on pseudovirus (SARS-CoV-2); remark: listed apart in the source
[18] = target: Omicron BA.4/5 spike on pseudovirus (SARS-CoV-2); remark: listed apart in the source
[19] = target: Omicron BA.4.6 spike on pseudovirus (SARS-CoV-2); remark: listed apart in the source
[20] = target: Omicron BQ.1.1 spike on pseudovirus (SARS-CoV-2)
[21] = target: Wuhan_Hu-1 spike (B.1_614D) on pseudovirus (SARS-CoV-2, UniProt P0DTC2 14-1273); remark: listed apart in the source
[22] = target: Wuhan_Hu-1_D614G spike (B.1) on pseudovirus (SARS-CoV-2, UniProt P0DTC2 14-1273); remark: listed apart in the source

B1: ACOVIMAB (antibody, V domains shown)
VH: EVQLVESGPEVKKPGTSVKVSCKASGFTFTTTSSVQWVRQARGQRLEWIGWIVVGSGETEYAQNFQDRVTITSDMSTTTAYMEMSSLRSEDSAFYYCAAPYCSGGTCMDGFDLWGQGTLVSVSS
VL: EIVLTQSPGTLSLSPGERATLSCRASQSVRSNYLGWYQQKPGQAPRLLIYAASSRATGIPDRFSGSGSGTDFTLTISRLEPEDFAVYYCQQYDRSPWTFGQGTKVESKR
With B1 the “IC50, pseudovirus neutralization” value [1] was 1 to 3 ng/mL, the “IC50, pseudovirus neutralization” value [2] was 1 to 3 ng/mL and the “IC50, pseudovirus neutralization” value [3] was 1 to 3 ng/mL. The “IC50, pseudovirus neutralization” value [4] was 1 to 3 ng/mL, the “IC50, pseudovirus neutralization” value [5] was 150 ng/mL and 280 ng/mL and the “IC50, pseudovirus neutralization” value [6] was 150 ng/mL. For the same binder, the “IC50 vs BA1” value [7] was 0.9 ng/ml and 60 pM, the “IC50, pseudovirus neutralization” value [8] was 9 ng/mL and the “IC50, pseudovirus neutralization” value [9] was 5.9 ng/mL. The “IC50, pseudovirus neutralization” value [10] was 5.2 ng/mL, the “IC50, pseudovirus neutralization” value [11] was 5.1 ng/mL and the “IC50, pseudovirus neutralization” value [12] was 2 ng/mL. For the same binder, the “IC50, pseudovirus neutralization” value [13] was 2.9 ng/mL, the “IC50, pseudovirus neutralization” value [14] was 1.3 ng/mL and the “IC50, pseudovirus neutralization” value [15] was 2.9 ng/mL. The “IC50, pseudovirus neutralization” value [16] was 3.7 ng/mL, the “IC50, pseudovirus neutralization” value [17] was 3.7 ng/mL and the “IC50, pseudovirus neutralization” value [18] was 220 ng/mL. The “IC50, pseudovirus neutralization” value [19] was 220 ng/mL and the “IC50, pseudovirus neutralization” value [20] was 290 ng/mL.

B2: Etesevimab (antibody, V domains shown)
VH: EVQLVESGGGLVQPGGSLRLSCAASGFTVSSNYMSWVRQAPGKGLEWVSVIYSGGSTFYADSVKGRFTISRDNSMNTLFLQMNSLRAEDTAVYYCARVLPMYGDYLDYWGQGTLVTVSS
VL: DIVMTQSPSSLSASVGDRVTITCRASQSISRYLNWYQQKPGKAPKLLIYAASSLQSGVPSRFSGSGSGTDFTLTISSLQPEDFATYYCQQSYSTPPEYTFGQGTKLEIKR
In the case of B2, the “IC50, pseudovirus neutralization” value [21] is reported as 12 ng/mL and the “IC50, pseudovirus neutralization” value [22] is reported as 6.6 ng/mL.

B3: Casirivimab (antibody, V domains shown)
VH: QVQLVESGGGLVKPGGSLRLSCAASGFTFSDYYMSWIRQAPGKGLEWVSYITYSGSTIYYADSVKGRFTISRDNAKSSLYLQMNSLRAEDTAVYYCARDRGTTMVPFDYWGQGTLVTVSS
VL: DIQMTQSPSSLSASVGDRVTITCQASQDITNYLNWYQQKPGKAPKLLIYAASNLETGVPSRFSGSGSGTDFTFTISGLQPEDIATYYCQQYDNLPLTFGGGTKVEIK
In the case of B3, the “IC50, pseudovirus neutralization” value [21] is reported as 6.2 ng/mL and the “IC50, pseudovirus neutralization” value [22] is reported as 2.3 ng/mL.

B4: Bamlanivimab (antibody, V domains shown)
VH: QVQLVQSGAEVKKPGSSVKVSCKASGGTFSNYAISWVRQAPGQGLEWMGRIIPILGIANYAQKFQGRVTITADKSTSTAYMELSSLRSEDTAVYYCARGYYEARHYYYYYAMDVWGQGTAVTVSS
VL: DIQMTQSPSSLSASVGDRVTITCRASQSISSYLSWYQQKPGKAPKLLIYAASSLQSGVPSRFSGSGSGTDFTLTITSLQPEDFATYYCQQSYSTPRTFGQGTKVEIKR
In the case of B4, the “IC50, pseudovirus neutralization” value [21] is reported as 5.3 ng/mL and the “IC50, pseudovirus neutralization” value [22] is reported as 2 ng/mL.

B5: Bebtelovimab (antibody, V domains shown)
VH: QITLKESGPTLVKPTQTLTLTCTFSGFSLSISGVGVGWLRQPPGKALEWLALIYWDDDKRYSPSLKSRLTISKDTSKNQVVLKMTNIDPVDTATYYCAHHSISTIFDHWGQGTLVTVSS
VL: QSALTQPASVSGSPGQSITISCTATSSDVGDYNYVSWYQQHPGKAPKLMIFEVSDRPSGISNRFSGSKSGNTASLTISGLQAEDEADYYCSSYTTSSAVFGGGTKLTVLG
In the case of B5, the “IC50, pseudovirus neutralization” value [21] is reported as 2.8 ng/mL and the “IC50, pseudovirus neutralization” value [22] is reported as 1.9 ng/mL.

B6: Tixagevimab (antibody, V domains shown)
VH: QMQLVQSGPEVKKPGTSVKVSCKASGFTFMSSAVQWVRQARGQRLEWIGWIVIGSGNTNYAQKFQERVTITRDMSTSTAYMELSSLRSEDTAVYYCAAPYCSSISCNDGFDIWGQGTMVTVSS
VL: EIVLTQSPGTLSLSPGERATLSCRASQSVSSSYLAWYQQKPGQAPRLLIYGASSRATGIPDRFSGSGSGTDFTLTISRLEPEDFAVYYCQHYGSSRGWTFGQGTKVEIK
For B6, the “IC50, pseudovirus neutralization” value [21] was 3.2 ng/mL and the “IC50, pseudovirus neutralization” value [22] was 1.2 ng/mL.

B7: Imdevimab (antibody, V domains shown)
VH: QVQLVESGGGVVQPGRSLRLSCAASGFTFSNYAMYWVRQAPGKGLEWVAVISYDGSNKYYADSVKGRFTISRDNSKNTLYLQMNSLRTEDTAVYYCASGSDYGDYLLVYWGQGTLVTVSS
VL: QSALTQPASVSGSPGQSITISCTGTSSDVGGYNYVSWYQQHPGKAPKLMIYDVSKRPSGVSNRFSGSKSGNTASLTISGLQSEDEADYYCNSLTSISTWVFGGGTKLTVLG
With B7 the “IC50, pseudovirus neutralization” value [21] was 4.8 ng/mL and the “IC50, pseudovirus neutralization” value [22] was 2.5 ng/mL.
